± gives the standard deviation of the averaged measurements.
B1: library; numbered along this chain (parent)
chain: MNIQIGELAKRTACPVVTIRFYEQEGLLPPPGRSRGNFRLYGEEHVERLQFIRHCRSLDMPLSDVRTLLSYRKRPDQDCGEVNMLLDEHIRQVESRIGALLELKHHLVELREACSGARPAQSCGILQGLSDCVCDTRGTTAHPSD

How the values were obtained:
[1] = variants of: B1; test: sfGFP reporter fluorescence (15 h) (µM FITC); higher = higher leak; conditions: library round: Round 0; ligand: none
Experimental: (§1)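 Cell-free (BL21 Star DE3 extract, PANOx-SP) biosensing: 1 µL Echo-assembled reactions with linear PbrR variant templates (5 nM) and pPbrR-sfGFP reporter, with 1 µM Pb (lead chloride), 30 µM Zn (zinc acetate) or no ligand; endpoint sfGFP fluorescence after 15 h at 30 °C, calibrated as µM FITC. Round 0 library (alanine scan, site saturation, combinatorial) of PbrR from Cupriavidus metallidurans; 2 biological replicates.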

[2] = variants of: B1; test: sfGFP reporter fluorescence (15 h) (µM FITC); higher = stronger transcriptional activation; conditions: library round: Round 0
Experimental: as §1

[3] = variants of: B1; test: sfGFP reporter fluorescence (15 h) (µM FITC); higher = higher leak; conditions: library round: Round 1; ligand: none
In short: (§2)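 Values are endpoint sfGFP fluorescence given as µM FITC equivalents. Fluorescence was read at 485/528 nm on a Synergy Neo2, and FITC standard curves were prepared in 50 mM sodium borate pH 8.5. Reactions of 1 μL combined BL21 Star (DE3) PANOx-SP extract, pPbrR-sfGFP reporter, 30 μg/mL GamS and linear PbrR templates (PCR-made, Echo-normalized to 5 nM), with 1 µM lead chloride, 30 µM zinc acetate or no metal, for 15 hr at 30 °C.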

[4] = variants of: B1; test: sfGFP reporter fluorescence (15 h) (µM FITC); higher = stronger transcriptional activation; conditions: library round: Round 1
In short: as §2

| Variant | sfGFP reporter fluorescence [1] | sfGFP reporter fluorescence ([2]; ligand: 1 µM Pb) | sfGFP reporter fluorescence ([2]; ligand: 30 µM Zn) | sfGFP reporter fluorescence [3] | sfGFP reporter fluorescence ([4]; ligand: 1 µM Pb) | sfGFP reporter fluorescence ([4]; ligand: 30 µM Zn) |
| --- | --- | --- | --- | --- | --- | --- |
| P15G | 0.0643 ± 0.0018 | 0.085 ± 0.0047 | 0.447 ± 0.028 |  |  |  |
| P15I | 0.06047 ± 0.00052 | 0.0612 ± 0.0015 | 0.288 ± 0.026 |  |  |  |
| M84A D131H |  |  |  | 0.0584 ± 0.0011 | 0.0712 ± 0.002 | 0.463 ± 0.061 |
| P61N | 0.07825 ± 0.00026 | 0.13 ± 0.078 | 1.74 ± 0.049 |  |  |  |
| L126K | 0.0597 ± 0.0031 | 0.05919 ± 0.00026 | 0.0564 ± 0.001 |  |  |  |
| L126F | 0.05699 ± 0.00026 | 0.0583 ± 0.001 | 0.0586 ± 0.0021 |  |  |  |
| L126H | 0.0603 ± 0.0018 | 0.0588 ± 0.00078 | 0.0552 ± 0.006 |  |  |  |
| D131W | 0.05699 ± 0.00026 | 0.07275 ± 0.00026 | 0.356 ± 0.046 |  |  |  |
| D131A | 0.0691 ± 0.00078 | 0.1098 ± 0.00078 | 1.141 ± 0.0013 |  |  |  |
| P61T I97N K104V |  |  |  | 0.0652 ± 0.0013 | 0.0689 ± 0.0055 | 0.169 ± 0.017 |
| G128I D131S |  |  |  | 0.0878 ± 0.004 | 0.253 ± 0.025 | 1.43 ± 0.2 |
| P61N P143L |  |  |  | 0.0754 ± 0.0012 | 0.151 ± 0.0086 | 0.804 ± 0.13 |
| D64T D135R |  |  |  | 0.137 ± 0.008 | 0.29 ± 0.041 | 1.76 ± 0.28 |
| P61D D64K L107C |  |  |  | 1.58 ± 0.082 | 1.54 ± 0.35 | 2.2 ± 0.1 |
| M60L D64K E81A R111A |  |  |  | 0.488 ± 0.013 | 1.37 ± 0.17 | 2.16 ± 0.59 |
| P61N C134V |  |  |  | 0.095 ± 0.0057 | 0.189 ± 0.051 | 1.26 ± 0.21 |
| P61N C134M |  |  |  | 0.102 ± 0.0054 | 0.233 ± 0.0043 | 1.53 ± 0.14 |
| D64A K104C |  |  |  | 0.115 ± 0.002 | 0.342 ± 0.031 | 1.25 ± 0.076 |
| N83T R111L |  |  |  | 0.0571 ± 0.0031 | 0.0683 ± 0.0036 | 0.167 ± 0.011 |
| N83T R111A |  |  |  | 0.0564 ± 0.00097 | 0.0834 ± 0.0021 | 0.341 ± 0.031 |
| N83T R111D |  |  |  | 0.0624 ± 0.00076 | 0.06 ± 0.0029 | 0.068 ± 0.0024 |
| V16T | 0.0641 ± 0.0031 | 0.0982 ± 0.0021 | 1.14 ± 0.09 |  |  |  |
